Assays:
Mouse sIL6R = target: T1, Mouse sIL6R (mouse, UniProt P22272 20-364); assay: BLI, Octet Red 96, BCD89 immobilised on AR2G sensors; Table 2 prints '-' for KD
T1 construct: extracellular domain; also called mouse receptor; mouse IL-6R
T1 sequence (looked up): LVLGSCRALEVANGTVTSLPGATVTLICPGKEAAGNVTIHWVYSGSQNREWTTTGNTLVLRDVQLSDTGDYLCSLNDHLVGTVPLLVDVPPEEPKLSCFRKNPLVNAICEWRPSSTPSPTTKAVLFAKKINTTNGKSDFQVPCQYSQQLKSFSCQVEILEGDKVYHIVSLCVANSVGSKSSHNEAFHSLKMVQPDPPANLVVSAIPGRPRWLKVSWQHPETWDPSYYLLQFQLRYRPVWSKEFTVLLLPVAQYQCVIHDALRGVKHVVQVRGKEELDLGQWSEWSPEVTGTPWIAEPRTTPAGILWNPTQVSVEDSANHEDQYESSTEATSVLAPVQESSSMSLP
Text: (§1) The interaction of the selected anti-IL6R with interleukin-6 receptors of cynomolgus, guinea pig, dog and mouse was examined with ELISA (FIG. 11, 12). The binding affinity constants of BCD89 antibody to IL-6sR alpha subunit of a human, cynomolgus, guinea pig, dog and mouse were obtained with Octet Red 96 (by ForteBio). BCD89 was nonspecifically immobilized onto the surface of amino reactive sensors of the second generation (AR2G) using standard protocol according to manufacturer's instruction for preparation and immobilization of AR2G sensors. Analysis was conducted at 30° C. using PBS comprising 0.1% Tween-20 and 0.1% BSA as a working buffer. Titration of IL-6R of a human, cynomolgus, guinea pig, dog, rabbit and mouse was performed using a running buffer from concentration of 126 nM to 2 nM, spacing 2.
(§2) Binding curves, after subtracting a reference signal, were analyzed using Octet Data Analysis software (Version 7.0) in accordance with the standard procedure and using 1:1 interaction model.

[1] = target: T2, Human sIL6R (recombinant IL-6sR alpha subunit of a human, Example 13) (human, UniProt P08887 20-365); assay: BLI, Octet Red 96, BCD89 immobilised on AR2G sensors, receptor titrated from 126 nM to 2 nM, 1:1 model
T2 construct: extracellular domain; also called recombinant IL-6R of a human; human IL-6R alpha subunit
T2 sequence (looked up): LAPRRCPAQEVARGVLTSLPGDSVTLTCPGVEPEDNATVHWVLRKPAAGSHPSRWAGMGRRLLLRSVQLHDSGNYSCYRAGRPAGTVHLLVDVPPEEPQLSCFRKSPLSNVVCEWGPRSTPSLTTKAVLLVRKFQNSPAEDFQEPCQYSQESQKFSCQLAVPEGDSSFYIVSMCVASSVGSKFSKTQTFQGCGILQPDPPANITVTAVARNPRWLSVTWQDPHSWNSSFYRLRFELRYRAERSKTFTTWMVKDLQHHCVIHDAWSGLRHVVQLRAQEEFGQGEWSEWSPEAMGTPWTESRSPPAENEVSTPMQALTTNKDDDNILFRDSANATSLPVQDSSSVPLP
Text: as §1, §2

Cynomolgus sIL6R = target: T3, Cynomolgus sIL6R (cynomolgus, UniProt A0A2K5WN54 60-396); assay: as above
T3 construct: extracellular domain; also called IL-6sR of a cynomolgus; cynomolgus IL-6R alpha subunit
T3 sequence: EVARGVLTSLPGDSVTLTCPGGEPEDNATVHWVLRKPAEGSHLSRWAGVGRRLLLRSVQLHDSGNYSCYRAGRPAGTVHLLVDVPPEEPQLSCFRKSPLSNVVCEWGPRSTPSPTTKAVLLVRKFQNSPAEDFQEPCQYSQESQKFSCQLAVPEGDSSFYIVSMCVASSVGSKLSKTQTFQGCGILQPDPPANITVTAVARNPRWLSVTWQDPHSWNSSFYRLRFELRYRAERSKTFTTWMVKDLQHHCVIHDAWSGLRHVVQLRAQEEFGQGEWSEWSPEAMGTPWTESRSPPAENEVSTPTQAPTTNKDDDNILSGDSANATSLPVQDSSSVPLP
Text: as §1, §2

Guinea Pig sIL6R = target: T4, Guinea Pig sIL6R (guinea pig); assay: as above
T4 construct: extracellular domain; also called guinea pig IL-6R; guinea pig IL-6R alpha subunit
Text: as §1, §2

binding result (Mouse sIL6R): no binding | Kd [1]: 0.663 nM | Kd (Cynomolgus sIL6R): 2.4 nM | Kd (Guinea Pig sIL6R): 306 nM
B1: BCD089 antibody (anti-IL-6sR) (antibody, IgG1, V domains shown)
VH: QVQLVQSGGGLVQPGGSLRLSCAASGFTFSSYYMSWVRQAPGKGLEWVSGIYSDGTTHYGDSVKGRFTISRDNAKNTVYLQLNSLRAEDTAMYYCAKGAGPTWWYALDAWGQGTLVTVSS
VL: DIQLTQSPSSVSVSVGERVTIDCKSSQSVLSASNTYLNWYQQKPGQAPQLLIYYASTRESGVPDRFSGSGSGTDFTLTISSLQAEDAAVYYCQQAYRAPVTFGQGTKLEIKR
notes: None of these passages names BCD089; also called BCD89; BCD-BCD-089 IgG1

Reference: US20190194313A1 (JOINT STOCK COMPANY BIOCAD, published 2019)
